Patent publication US20190185898A1 (UNIVERSITY OF MARYLAND BALTIMORE COUNTY, published 2019)

Biological target: T1, core-fucosylated complex type glycoform of rituximab (30)
T1 construct: Obtained from 28 by AlfC E274A catalysed core fucosylation; also called fucosylated rituximab (30); core fucosylated antibody (30)
Assay: ELISA, glycoprotein coated, AAL-biotin in serial dilution
Method: The glycoprotein (20, 21, 28 or 30) (10 μg/ml) in a phosphate buffer (pH 7.5) was coated onto a 96-well plate (UltraCruz®) at 4° C. for overnight. After wash twice, 2% bovine serum albumin in PBS containing Tween® 20 (PBST buffer) was added to block the plate for 2 h. Subsequently, after washed twice again, a serial dilution of AAL-biotin ranging from 0.1 μM to 1000 μM in PBST buffer was added and the plate was incubated for 1 h. After washing, peroxidase streptavidin (2 μg/mL) (Jackson ImmunoResearch Inc.) was added and incubated for 1 h. Finally, 100 μL of substrate, 3, 3′, 5, 5′-tetramethylbenzidine was added for signal development. The reaction was stopped by the adding 100 μL of 20% sulfuric acid (v/v). The absorbance at 450 nm was measured using SpectraMax M5 microplate reader (Molecular Devices). For the binding of the N-glycans, the Fmoc-labeled N-glycans released from 20, 21, 28 and 30 (1 μg/ml) were coated on the plate and the ELISA analysis was performed in the same manner as that of the glycoproteins.

EC50: 15 µM
fold higher affinity than core-fucosylated RNase B (21): ~17 fold
B1: Aleuria aurantia lectin (AAL) (other, UniProt P18891 2-313, looked up)
chain: PTEFLYTSKIAAISWAATGGRQQRVYFQDLNGKIREAQRGGDNPWTGGSSQNVIGEAKLFSPLAAVTWKSAQGIQIRVYCVNKDNILSEFVYDGSKWITGQLGSVGVKVGSNSKLAALQWGGSESAPPNIRVYYQKSNGSGSSIHEYVWSGKWTAGASFGSTVPGTGIGATAIGPGRLRIYYQATDNKIREHCWDSNSWYVGGFSASASAGVSIAAISWGSTPNIRVYWQKGREELYEAAYGGSWNTPGQIKDASRPTPSLPDTFIAANSSGNIDISVFFQASGVSLQQWQWISGKGWSIGAVVPTGTPAGW
modifications: biotin label (AAL-biotin), site not stated
notes: Lectin that recognises the α1,6-fucosylated glycan; Added in serial dilution (0.1 µM to 1000 µM) to the coated glycoprotein; also called AAL-biotin
